Data reported in patent US20220017635A1 (Kyowa Kirin, published 2022).

What was measured:
monkey EGFR-FLAG-Fc = molecular target: T1, monkey EGFR-FLAG-Fc (monkey, UniProt P55245 25-638); experiment: phage ELISA (scFv) on immobilized monkey EGFR-Fc
T1 construct: also called monkey EGFR-Fc; not shown: FLAG-Fc added to the C terminus

human EGFR on cells [1] = molecular target: T2, human EGFR on cells (human, UniProt P00533 25-1210); experiment: flow cytometry on OE21 cells; x axis Alexa Fluor 488-A [C]
T2 construct: also called membrane-associated EGFR on OE21 cells

human EGFR-FLAG-Fc [2] = molecular target: T3, human EGFR-FLAG-Fc (human, UniProt P00533 25-638); experiment: phage ELISA (scFv) on immobilized human EGFR-Fc
T3 construct: also called human EGFR-Fc
Experimental: Specifically, it was carried out by adding a phage solution diluted with PBS-T containing 10% Block Ace (manufactured by Dainippon Pharmaceutical Co., Ltd.) to a 96-well immunoplate (NUNC, Inc.) on which an antigen protein was immobilized to allow a reaction to proceed at room temperature for 1 hour, followed by washing with PBS-T, and then, adding an anti-M13 antibody (manufactured by GE Healthcare, Inc.) labeled with horseradish peroxidase diluted with 1% BSA-PBS thereto to allow a reaction to proceed at room temperature for 1 hour.
The confirmation of a clone that specifically recognizes human and monkey EGFR-Fc was carried out by the ELISA method.

human EGFR on cells [3] = molecular target: T2, human EGFR on cells; experiment: flow cytometry on OE21 cells; x axis PE-A [D]
human EGFR-FLAG-Fc [4] = molecular target: T3, human EGFR-FLAG-Fc; experiment: phage ELISA on immobilized EGFR-Fc (Example 5)

B1: E17 (antibody, V domains shown)
VH: QVQLQQWGAGLLKPSETLSLTCALYSGSFSAQDWSWIRQSPEKGLEWIGEIWQGGKTNYNPSLKSRVSISRDNSKNQLSLQLSSVTAADTAVYYCARVDWSYRVFEIWGQGTMVTVSS
VL: not shown
notes: also called anti-EGFR antibody E17
Monkey EGFR-FLAG-Fc
  binding result: binds
Human EGFR on cells [1]
  binding result: binds
Human EGFR-FLAG-Fc [2]
  binding result: binds

B2: KME07 (antibody, V domains shown)
VH: QVQLVQSGAEVKKPGSSVKVSCKASGGTFSSFAFGWVRQAPGQGLEWMGEVRPGFGTEILTQNFQDRVTITADESTSTTYMELRSLKSEDTAVYYCARGLLRGGYIENPFEIWGQGTLVTVSS
VL: DIQMTQSPSSLSASVGDRVTITCRASQGISSWLAWYQQKPEKAPKSLIYAASSLQSGVPSRFSGSGSGTDFTLTISSLQPEDFATYFCQQYYNYPYTFGQGTKLEIK
notes: IgG4PE or IgG4PE R409K; also called anti-EGFR antibody KME07
Human EGFR on cells [3]
  binding result: binds

B3: KME11 (antibody, V domains shown)
VH: QVQLVQSGAEVKKPGSSVKVSCKASGGTLSTYGITWVRQAPGQGFAWMGEIIPSLGIVNYAQKFQGRVTITADESTSTVYMELSSVTYEDTAVYYCAGDELSEGHSEYYHGMDVWGQGTTVTVSS
VL: DIQMTQSPSSLSASVGDRVTITCRASQGISSWLAWYQQKPEKAPKSLIYAASSLQSGVPSRFSGSGSGTDFTLTISSLQPEDFATYFCQQYYNYPYTFGQGTKLEIK
notes: IgG4PE or IgG4PE R409K; also called anti-EGFR antibody KME11; KME1l
Human EGFR-FLAG-Fc [4]
  binding result: binds
